# B1: MBP-5-HT3A-ICD chimera (maltose-binding protein and the intracellular domain of the mouse serotonin type 3A receptor) (domain or fragment, UniProt P23979 327-466, looked up)
# chain: ETIFIVRLVHKQDLQRPVPDWLRHLVLDRIAWILCLGEQPMAHRPPATFQANKTDDCSGSDLLPAMGNHCSHVGGPQDLEKTPRGRGSPLPPPREASLAVRGLLQELSSIRHFLEKRDEMREVARDWLRVGYVLDRLLFR
# Molecular target: the molecule itself
# Assay: SEC
protein,measurement,value
B1,stoichiometry N,5
